# Residue numbers refer to the chain shown, from its start. Where two headings read alike, the source gives them in different places.
# B1: <CSF-1R>10A4.1G11 (antibody, V domains shown)
# VH: EVQLQQFGTELVKPGASVKISCKASGYTFTDYNMDWVKQSHGKSLEWIGDINPNYDSTTYNQKFKGKATLTVDKSSSTAYMELRSLTSEDTAVYYCARWRFFAMDYWGQGTSVTVSS
# VL: DIQMTQSSSSFSVSLGDRVTITCKASEDIYNRLAWYQQKPGNAPRLLISGASSLETGVPSRFSGSGSGKDYTLSITSLQTEDVATYYCQQYWSIPWTFGGGTKLEIKR
# notes: Mouse monoclonal antibody from a hybridoma
# B2: <CSF-1R>7H5.2G10 (antibody, V domains shown)
# VH: EVQLQQSGPELVKPGASMKISCKASGYSFTDYTVNWVKQSHGENLDWIGLIIPYNGGTSYNHNFRGKATLTVDKSSSTAYMELLSLTSEDSAVYYCTRGGGDFTTGYTMDYWGHGTSVTVSS
# VL: DIQMTQSSSYLSVSLGGTVTINCKASDHIHDWLAWYQQQPGNAPRLLISGATSLETGVPSRFSGGGSGKDYSLIITSLQTEDFATYYCQQYWSIPWTFGGGTKLEIKR
# notes: Mouse monoclonal antibody from a hybridoma (NMRI mice); also called deposited antibody DSM ACC2922
# B3: <CSF-1R>6G4.1C8 (antibody, V domains shown)
# VH: B2 VH with E89D, H114Q
# VL: B2 VL with D31N, F83V
# notes: as for B1
# Experiments:
# [1] = molecular target: CSF-1R ECD (R&D-Systems 329-MR or in-house subcloned pCMV-presS-HisAvitag-hCSF-1R-ECD) (human) (UniProt P07333); assay: SPR (BIACORE A100), 35 C, antibody captured, CSF-1R ECD in solution
# Sequence of CSF-1R ECD (R&D-Systems 329-MR or in-house subcloned pCMV-presS-HisAvitag-hCSF-1R-ECD) (human) (P07333 20-517 limits assumed): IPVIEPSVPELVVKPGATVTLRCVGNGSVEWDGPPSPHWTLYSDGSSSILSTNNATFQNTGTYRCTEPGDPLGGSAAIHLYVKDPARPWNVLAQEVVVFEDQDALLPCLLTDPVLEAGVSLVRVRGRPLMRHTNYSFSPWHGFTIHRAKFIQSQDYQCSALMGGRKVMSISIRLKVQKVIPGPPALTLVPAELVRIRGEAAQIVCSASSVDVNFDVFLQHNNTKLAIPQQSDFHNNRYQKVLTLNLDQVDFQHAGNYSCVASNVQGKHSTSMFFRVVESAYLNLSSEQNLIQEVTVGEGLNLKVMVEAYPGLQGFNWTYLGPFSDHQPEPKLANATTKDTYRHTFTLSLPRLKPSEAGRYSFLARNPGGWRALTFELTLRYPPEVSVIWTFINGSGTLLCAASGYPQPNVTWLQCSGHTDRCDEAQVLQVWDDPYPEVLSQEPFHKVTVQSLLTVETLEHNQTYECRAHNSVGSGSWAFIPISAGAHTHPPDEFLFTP
# [2] = molecular target: CSF-1R ECD (R&D-Systems 329-MR or in-house subcloned pCMV-presS-HisAvitag-hCSF-1R-ECD) (human) (UniProt P07333); assay: SPR cross-competition, 25 C; second antibody on CSF-1R held by captured Antibody 1; competitor <CSF-1R>10A4.1G11 (Antibody 1)
# [3] = molecular target: CSF-1R ECD (R&D-Systems 329-MR or in-house subcloned pCMV-presS-HisAvitag-hCSF-1R-ECD) (human) (UniProt P07333); assay: SPR cross-competition, 25 C; second antibody on CSF-1R held by captured Antibody 1; competitor SC-02, clone 2-4A5 (Antibody 1)
# [4] = molecular target: mutant CSF-1R L301S Y969F (human, UniProt P07333 20-972); assay: cell-based or functional assay
# Sequence of mutant CSF-1R L301S Y969F (P07333 20-972 L301S/Y969F limits assumed): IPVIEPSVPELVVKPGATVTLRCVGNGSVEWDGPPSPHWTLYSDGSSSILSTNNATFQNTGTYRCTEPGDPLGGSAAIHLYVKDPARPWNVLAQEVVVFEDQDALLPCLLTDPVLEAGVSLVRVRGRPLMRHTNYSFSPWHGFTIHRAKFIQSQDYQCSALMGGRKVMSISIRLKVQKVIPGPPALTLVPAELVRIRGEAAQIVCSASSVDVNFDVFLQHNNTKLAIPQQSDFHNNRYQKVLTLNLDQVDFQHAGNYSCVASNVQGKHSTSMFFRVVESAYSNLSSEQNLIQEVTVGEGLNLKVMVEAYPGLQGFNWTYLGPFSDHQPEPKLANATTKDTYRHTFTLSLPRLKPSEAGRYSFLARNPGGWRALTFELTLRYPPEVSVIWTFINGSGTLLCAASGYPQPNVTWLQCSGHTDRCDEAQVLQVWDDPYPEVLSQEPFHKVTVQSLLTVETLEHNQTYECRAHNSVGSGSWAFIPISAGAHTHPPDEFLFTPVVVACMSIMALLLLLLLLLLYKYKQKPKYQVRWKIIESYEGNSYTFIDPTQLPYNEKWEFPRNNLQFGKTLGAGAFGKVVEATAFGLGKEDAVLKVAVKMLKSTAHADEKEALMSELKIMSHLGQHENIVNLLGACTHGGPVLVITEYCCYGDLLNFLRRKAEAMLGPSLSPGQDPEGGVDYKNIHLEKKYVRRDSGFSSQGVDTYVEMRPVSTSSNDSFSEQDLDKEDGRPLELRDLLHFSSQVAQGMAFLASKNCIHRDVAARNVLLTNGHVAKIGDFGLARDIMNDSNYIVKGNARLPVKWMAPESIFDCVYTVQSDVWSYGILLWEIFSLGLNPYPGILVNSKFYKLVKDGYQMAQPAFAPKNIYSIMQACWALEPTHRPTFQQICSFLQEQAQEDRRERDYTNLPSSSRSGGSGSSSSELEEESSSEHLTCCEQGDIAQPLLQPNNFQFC
# [5] = molecular target: CSF-1R ECD (R&D-Systems 329-MR or in-house subcloned pCMV-presS-HisAvitag-hCSF-1R-ECD) (human) (UniProt P07333); assay: SPR cross-competition, 25 C; second antibody on CSF-1R held by captured Antibody 1; competitor <CSF-1R>7H5.2G10 (Antibody 1)
# [6] = molecular target: huCSF-1R-huFc chimera (soluble extracellular domain) (human) (UniProt P07333); assay: competition ELISA, inhibition of CSF-1 binding to immobilized huCSF-1R-huFc
# Sequence of huCSF-1R-huFc chimera (soluble extracellular domain) (human) (P07333 20-517, change not shown): as the sequence (P07333 20-517 limits assumed) above
# [7] = molecular target: T1, full-length wildtype CSF-1R (wt CSF-1R) (human, UniProt P07333 20-972); assay: cell-based or functional assay
# T1 sequence (P07333 20-972 limits assumed): as the sequence (P07333 20-972 L301S/Y969F limits assumed) above, with S282L, F950Y counted along it
# [8] = molecular target: T1, full-length wildtype CSF-1R (wt CSF-1R); assay: cell-based or functional assay; remark: listed apart in the source
# [9] = molecular target: T2, huCSF-1R-huFc chimera (soluble extracellular domain) (human, UniProt P07333 20-517); assay: competition ELISA, inhibition of CSF-1 binding to immobilized huCSF-1R-huFc
# T2 construct: also called huCSF-1R ECDhuFc chimera; not shown: human Fc
# T2 sequence (P07333 20-517, change not shown): as the sequence (P07333 20-517 limits assumed) above
# Method: At the beginning, plates were coated with […] goat F(ab′)₂ biotinylated anti Fcγ (Jackson ImmunoResearch., Cat. No. 109-006-170) for 1 hour (h).
# Thereafter the wells were blocked with PBS supplemented with 0.2% Tween®-20 and 2% BSA (Roche Diagnostics GmbH, DE) for 0.5 h. 75 ng/ml of huCSF-1R-huFc chimera (soluble extracellular domain) was immobilized to plate for 1 h. Then dilutions of purified antibodies in PBS/0.05% Tween20/0.5% BSA were incubated for 1 h. After adding a mixture of 3 ng/ml CSF-1 (Biomol, DE, Cat. No. 60530), 50 ng/ml biotinylated anti CSF-1 clone BAF216 (R&D Systems, UK) and 1:5000 diluted streptavidin HRP (Roche Diagnostics GmbH, DE, Cat. No. 11089153001) for 1 h the plates were washed 6 times with PBST. Anti CSF-IR SC-02, clone 2-4A5 (Santa Cruz Biotechnology, US), which inhibits the ligand-receptor interaction, was used as positive control. Plates were developed with freshly prepared BM Blue® POD substrate solution (BM Blue®: 3,3″-5,5″-Tetramethylbenzidine, Roche Diagnostics GmbH, DE, Cat. No. 11484281001) for 30 minutes at RT. Absorbance was measured at 370 nm. […]
# [10] = molecular target: T1, full-length wildtype CSF-1R (wt CSF-1R); assay: cell-based or functional assay; remark: listed apart in the source
# [11] = molecular target: T3, CSF-1R ECD (R&D-Systems 329-MR or in-house subcloned pCMV-presS-HisAvitag-hCSF-1R-ECD) (human, UniProt P07333 20-517); assay: SPR (BIACORE A100), 35 C, antibody captured, CSF-1R ECD in solution
# T3 construct: also called CSF-1R (R&D-Systems Cat. No. 329-MR)
# T3 sequence (P07333 20-517 limits assumed): as above
# Method: For affinity measurements 36 μg/ml anti mouse Fcγ antibodies (from goat, Jackson Immuno Reasearch JIR115-005-071) have been coupled to the chip surface for capturing the antibodies against CSF-1R. CSF-1R ECD (R&D-Systems 329-MR or in-house subcloned pCMV-presS-H isAvitag-hCSF-1R-ECD were added in various concentrations in solution. Association was measured by an CSF-1R-injection of 1.5 minutes at 35° C.; dissociation was measured by washing the chip surface with buffer for 10 minutes at 35° C. Anti CSF-IR SC-02, clone 2-4A5 (Santa Cruz Biotechnology, US; see also Sherr, C. J., et al., Cell 41 (1985) 665-676), which inhibits the ligand-receptor interaction, was used as reference control.
# [12] = molecular target: T1, full-length wildtype CSF-1R (wt CSF-1R); assay: cell-based or functional assay; remark: listed apart in the source
Molecule,"% survival, NIH3T Cells expressing Mutant CSF-1R, 10 ug/ml antibody [4] [%]",IC50 CSF-1R Phosphorylation [8] [µg/mL],IC50 [9] [µg/mL],"% survival, NIH3T Cells expressing wtCSF-1R, 10 ug/ml antibody [10] [%]",Kd [11] [nM],koff [11] [s⁻¹],kon [11] [M⁻¹ s⁻¹],t1/2 [11] [min],"IC50 [nM], inhibition of the survival of monocytes [12] [nM]",further results
"Anti CSF-1R SC-02, clone 2-4A5 (Santa Cruz Biotechnology, US) (antibody)",66,–,–,–,–,–,–,–,–,"Kd [1]: 2.73 nM; koff [1]: 0.00139 s⁻¹; kon [1]: 509000 M⁻¹ s⁻¹; t1/2 [1]: 8.31 min; percentage (%) of expected binding response [2]: 24%; percentage (%) of expected binding response [3]: -2%; percentage (%) of expected binding response [5]: 42%; IC50 [6]: 0.0309 µg/mL; % inhibition 10 ug/ml antibody concentration, BeWo tumor cells in 3D culture [7]: 40%; % survival, NIH3T Cells expressing wtCSF-1R, 10 ug/ml antibody [7]: 62%; IC50 CSF-1R Phosphorylation [7]: 0.412 µg/mL; IC50 [nM], inhibition of the survival of monocytes [7]: 2.4 nM"
B1,144,0.0154,0.0634,3,1.77,0.0013,740000,8.89,0.4,–
B2,112,0.049,0.0269,2,0.54,0.00038,700000,30.4,1,–
B3,91,0.0826,0.0212,3,0.52,0.00029,570000,39.4,–,–
